In paper PMC6179962, “POLE3-POLE4 Is a Histone H3-H4 Chaperone that Maintains Chromatin Integrity during DNA Replication” (Molecular Cell, 2018):
Values belong to the molecule of their own block, whether it stands above or below them.

Legend:
[1] = biological target: tagged POLE3-POLE4 complex (GST-Pole4/His-POLE3) (human) (UniProt Q9NR33); test: pull-down; as a2 but 300 mM NaCl
[2] = biological target: T1, GST-tagged POLE3 (human, UniProt Q9NRF9 1-147); test: pull-down; GST-tagged POLE3 or POLE4 (WT or mutant) on glutathione beads with His-tagged POLE4 or POLE3; 150 mM and 1 M NaCl (Figures S1A, S1B); salt of Figure 1C not told; details: both partners purified
T1 construct: DNA polymerase epsilon subunit POLE3, human, full length; cloned in pGEX 6P-1; also called GST-POLE3; source: E. coli BL21(DE3) pLysS, purified (glutathione-Sepharose 4B)
T1 sequence (looked up): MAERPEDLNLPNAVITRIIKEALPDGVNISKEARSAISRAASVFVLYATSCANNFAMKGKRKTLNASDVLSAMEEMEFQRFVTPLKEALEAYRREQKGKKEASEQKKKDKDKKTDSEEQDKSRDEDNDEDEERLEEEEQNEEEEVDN

[3] = biological target: T2, His-tagged POLE3 (human, UniProt Q9NRF9 1-147); test: as above; details: both partners purified
T2 construct: DNA polymerase epsilon subunit POLE3, human; cloned via Gateway into pDEST17; also called His-POLE3; source: E. coli BL21(DE3) pLysS, purified (Ni-NTA)
T2 sequence (looked up): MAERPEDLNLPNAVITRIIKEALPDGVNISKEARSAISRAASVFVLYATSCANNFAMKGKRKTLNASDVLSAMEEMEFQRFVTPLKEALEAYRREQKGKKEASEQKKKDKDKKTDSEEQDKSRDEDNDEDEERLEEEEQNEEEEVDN

percent of the interaction at 150 mM NaCl [1]: 50%
Molecule: purified H3-H4 histones (H3.3 variant) (from UniProt P84243 1-136; P62805 1-103) (complex)

binding result [2]: binds
B1: His-tagged POLE4 (natural protein, human, UniProt Q9NR33 1-117, looked up)
chain: MAAAAAAGSGTPREEEGPAGEAAASQPQAPTSVPGARLSRLPLARVKALVKADPDVTLAGQEAIFILARAAELFVETIAKDAYCCAQQGKRKTLQRRDLDNAIEAVDEFAFLEGTLD
notes: DNA polymerase epsilon subunit POLE4, human; cloned via Gateway into pDEST17; also called His-POLE4; source: E. coli BL21(DE3) pLysS, purified (Ni-NTA)

binding result [3]: binds
B2: GST-tagged POLE4 (natural protein, human, UniProt Q9NR33 1-117, looked up)
chain: MAAAAAAGSGTPREEEGPAGEAAASQPQAPTSVPGARLSRLPLARVKALVKADPDVTLAGQEAIFILARAAELFVETIAKDAYCCAQQGKRKTLQRRDLDNAIEAVDEFAFLEGTLD
notes: DNA polymerase epsilon subunit POLE4, human, full length; cloned in pGEX 6P-1; also called GST-POLE4; source: E. coli BL21(DE3) pLysS, purified (glutathione-Sepharose 4B)
